The results in this text go back to the nanobody polyreactivity screen of Harvey et al. (2022).

A short description of the data set: yeast display, Sf9 membrane polyspecificity reagent, FACS + sequencing; frameworks hold sequencing errors. The method, boiled down: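 Sorting gates, low and high (top ~1%), were placed on anti-HA fluorescence to track expression and on streptavidin fluorescence to track reagent binding. A clone's polyreactivity label is taken from the gate it came out of. The reagent was 10% biotinylated, detergent-solubilized Sf9 membrane, applied for 1 hour at 4 °C to galactose-induced yeast display cells.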
Consider “QVQLVESGGGLVQAGGRLRLSCAASGFTIRLYTMGWYRQAPGKERELVAAITYSGDSTYYADSVKGRFTISRDNAKNTVYLQMNSLKPVDTAVYYCAARKYYARYYWGQGTQVTVSS”, for which the “polyreactivity (PSR sort gate)” value is on record as “high polyreactivity”.
Take “QVQLVESGGGLVQAGGSLRLSCAASGRTFRGNALGWYRQAHGKERELVAAITGTGGSTYYADSVKGRFTISRDNAKNTVYLQRNRLKPEDTAVYYCAAVLRGHNGLKFEYWGQGTQVTVSS”: the “polyreactivity (PSR sort gate)” value is given as “high polyreactivity”.
On to “QVQLVESGGGLVQEGGSLRLSCAASGRTFAYNVKGRYRQAPGKVRELVAGISFGAGSTYYADSVKGRFTISRDNAKNTVYLHMNSLKPEDTAVYYCATRRRGTRYPRGYDYWGQGTQVTVSS”, for which the “polyreactivity (PSR sort gate)” value was “high polyreactivity”.
As for “QVQLVESGGGLVQAGGSLRLSCAASGSTFPVYAMGWYIQAPGKERELVAAISYSGTRTYYADSVKGRFTISRDNAKNTVYLQMNSLKPEDTAVYYCAADFEGYGQGYGYWGQGTQVTVSS”, the entry is “low polyreactivity”; as for “QVQLVESGGGLVQAGGSLRLSCAASGRIFQPNAMGWYRQATGNERELVAAISSSGGRTYYADSVKGRFTISRDNAKNTVYLQMNSLKPEDTAVYYCNAGGYRYRSYDYWGQGNQVTVSS”, “high polyreactivity”; as for “QVQLVESGGGFVQAGGSLRLSCAASGSIIKRNAMGWYRQAPGKERELVASISSGGSTKYADSVKGRFTLSRDNAKNTVYLQMNSLKPEDTAVYYCAKRSSQTRRAYDYWGQGTQVTVSS”, “low polyreactivity”.
As for “QVQLVESGGGLVQAGGSLRISCAASGFTFRSYAMGWYRQAPGKERELVAAISWRGGRTYYADSVKGRFTISRDNAKNTVYLQMNSLKPLDTAVYYCATDWYWGSYAPYTTRAHFDYWGQGTQVTVSS”, the “polyreactivity (PSR sort gate)” value is “high polyreactivity”.
Consider “QVQLVESVLGLVQAGGSLRLSCAASGSTILSNAIGWYRQAPGKERELVAAITSGGSTYYADSVKGGFTISRDNAKNTVYFQMNSLKPDDTAVYYCAVRYDRRRYDYWGQGTQVTVSS”, for which the “polyreactivity (PSR sort gate)” value was “low polyreactivity”.
As for “QVQLQESGGGLCRRAAASSGAASGTISYLNYMGWYRQAPGKEREFVAGINNGTTTNYADSVKGRFTISRDNAKNTVYLQMNSLKLEDTAVYYCAVDPYYTFYFWYWGQGTQLTVSS”, the entry is “high polyreactivity”.
Take “QVQLVESGGGLVQAGGSLRLSCAASGSIFSWYAMGWYRQAPGKERELVAAISSRGGSTYYADSVKGRFTISRDNAKNTVYLQMNSLKPEDTAVYYCNTTYGYSTYWASGKYDYWGQGTQVTVSS”: the “polyreactivity (PSR sort gate)” value is recorded as “low polyreactivity”.
For the sequence “QVQLVESGGGLVQSGGSLRLSCAASGITLRRNAMVWYRQAPGKERELVASISSRGGTTYYADSVKGRFTISRDNAKNTDYLQMISQKPEDTAVYYCAAYRVQRLANTGYDYWGQGTQVTVSS”, the “polyreactivity (PSR sort gate)” value is “high polyreactivity”.
As to “QVQLVESGGGLVQAGGSHRLSCAASGLILGINAKGWYRQAPGTERELVAAISSSGGRTSYADSVKGRFTISRDNGKNTVYLQMNSLNPEDTAVYYCAKRRTTYSHYDYWGHGTQVTVSS”, the “polyreactivity (PSR sort gate)” value is recorded as “low polyreactivity”.
With “QVQLVESGGGLVQAGGSRSLSCAASGSTFYSYAMGWYRQAPGKERELVAAINWDGVSTYYADSVKGRFTISRDNAKNTVYLQMNSLKPEDTAVYYCAAELFSGYRISGTYYYWGQGTQVTVSS”, the “polyreactivity (PSR sort gate)” value is given as “low polyreactivity”.
As for “QVQLVYTLGGLDQAGGSLRVSCYASGRTFVYYPMGWYRQAPGKERELVAAITRSGGRTYYADSVKGRFTISRDNAKNTVYLQKYSMKPEETAVYYCAARYCDNPYWFDYWGQGTQVTVSS”, the entry is “high polyreactivity”; as for “QVQLVESGGGLVQEGGSLRLTCAASGRIFVYNAMGWYRQAPRKDRELVAAISWRGDGTYYADSVKGLFTISRDNAKITVYLQMNSLKPEDTAVYYCAADYVYYYHEYDYWGQGTQVTVSS”, “low polyreactivity”.
As for “QVQLVESGGGLVQAGGSLRLSCAASGRIFTYNAMGWYIQAPGKERELVAAISSSVGSTYYADSVKGRFTISRDNAKNTVYLQMNSLKPEDTAVYYCAAYSYRNLRFYYWGQGTQVTVSS”, the entry is “high polyreactivity”.
In the case of “QVQLVESGGGLVQAGGSLRLSCAASGFTFLPYVMGWYRQAPGKERELVAGITRTGSTNYADSVKGRFTISRDNAKNTVYLQMNSLKPEDTAVYYCAARLKYWGDYYYWGQGTQVTVSS”, the “polyreactivity (PSR sort gate)” value is given as “low polyreactivity”.
As for “QVQLVESGGGLVQAGGSLRLSCAASGRISAFNSMGWYRQAPGKERELVAAINVSGGNTYYADSVKGRFTISRDNAKNTFFLQMNSLKPEDTAVYYCAAERRRWGLDYYYWGQGTQVTVSS”, the entry is “high polyreactivity”; as for “QEQLVESGGGLVQAGGSLRLSCAASGRIFPYYAMGWYRPAPGKERELVASITARGGSTYYADSVKGRFTISRDNAKNTVYLQMNSLKPEDTAVYYCATRGYAWSSDKFGYWGQGTQVTVSS”, “high polyreactivity”.
With “QVQLVESGGGLVQAGGSLRLSCAASGSIFRVNTMGWYRQAPGKERELVAGITSRGGSTYYADSVKGRFTISRDNAKNTVYLQMNSLKPEDTAFYYCANRAYGTALYRGYGYWGQGTQVPVSS” the entry was “low polyreactivity”; with “QVQIVESGGGLVQAGGSLRLSCAASGSIFSGYVMGWYRQAPGKERELVAAITWSGGRTYYADSVKGRFTISRDNAKNTVYLQMNSLKPEDTAVYYCAKRKIKSSGYYYWGQGTQVTVSS”, “high polyreactivity”; with “QVQLVESGGGLVQAGGSLRLSCAASGTFAGNAMGWYRQAPGKERELVAAITTGGRTYYADSVKGRFTISRDNAKNTVYLQMNSLKPEDTAVYYCAADRIRDLEFDYWGQGTKVTVSS”, “low polyreactivity”.
With “QVQLVESGGGLVQAGGSLRLSCAASGIIFDDYAMGWYRQAPGKERELVAAITDSGGSTYYADSVKGRFTISRDNAKNTVYLQMNSLKPEVTAVYYCAARTQRRVNRVGYRSNYYYWGQGTQVTVSS” the entry was “low polyreactivity”.
Consider “QVQLEESGGGLVQAGGSLRLSCAASGFIFAQYAMGWYRKAPRKDRELVAAISWSGGSTYYADSVKGRFTISRDNAKNTVYLQMNSLKPEDTAVYYCAALFRNKSRYRYGYWGQGTQVTVSS”, for which the “polyreactivity (PSR sort gate)” value is listed as “high polyreactivity”.
Regarding “QVQLVESGGGLVQAGGSLRLSCAASGRIFYPYAMGWYRQAPGKERELVAAIRRSGVDTYYADSVKGRFTISRDNAKNTVYLQMNSLIPEDTAVYSCAADPYWFFPHYDSWGQGTQVTVSS”, the “polyreactivity (PSR sort gate)” value is “low polyreactivity”.
As for “QVQLVESGGGLVQAGGSLRLSCAASGRTFSAYAMGWYRQAPGKERELVARITSVDSTNYADSVKGRFTISRDNAKNTVYLLMNSLKPEDTAVYYCNATFGYPFVDYDDYWGQGTQVTVSS”, the entry is “low polyreactivity”; as for “QVQLVESGGGLVQAGGSLRLSCAASGSIFDYNAMGWYRQAPGKVRELVAAITGSGGSTYYADSVKGRFTISRDNAKNTVYLQMNSLTAEDTAVYYCAAPVDYRRYEYEYWGQGTQVTVSS”, “low polyreactivity”; as for “QVQLVESGGGLVQAGGSLRLSCAASGIISRSYTMGWYRQAPGKERELVAVISSSGGSTYYADSVKGRFTISRDNAKNTVYLQMNSLKPEDTAVYYCAARPVTRFQGSDYWGQGTQVTVSS”, “high polyreactivity”.
“QVQLVESGGGLVQAGGSLRLSCAASGIIFSINAMGWYRQAPGKERELVAAISRSGGSTNYADSVKGRFTISRDNAKNTVYLQMNSLKPEDTAVYYCATVHRYSVWSHNYWGQGTQVTVSS”: the “polyreactivity (PSR sort gate)” value is “high polyreactivity”.
Regarding “QVQLVESGGGLVQAGGSLRLSCAASGRIFPSNTMGWYRQAPGKERELVADISFGGGSTYYADSVKGRFTISRDNAKNTVYLQMNSLKPEDTAVYYCNADFGFGYVSLLYEYWGQGTQVTVSS”, the “polyreactivity (PSR sort gate)” value is “low polyreactivity”.
